Assay results: IntAct's records for PubMed 35512704

B1: Mothers against decapentaplegic homolog 4 (Homo sapiens), Q13485 (parent)
chain: MDNMSITNTPTSNDACLSIVHSLMCHRQGGESETFAKRAIESLVKKLKEKKDELDSLITAITTNGAHPSKCVTIQRTLDGRLQVAGRKGFPHVIYARLWRWPDLHKNELKHVKYCQYAFDLKCDSVCVNPYHYERVVSPGIDLSGLTLQSNAPSSMMVKDEYVHDFEGQPSLSTEGHSIQTIQHPPSNRASTETYSTPALLAPSESNATSTANFPNIPVASTSQPASILGGSHSEGLLQIASGPQPGQQQNGFTGQPATYHHNSTTTWTGSRTAPYTPNLPHHQNGHLQHHPPMPPHPGHYWPVHNELAFQPPISNHPAPEYWCSIAYFEMDVQVGETFKVPSSCPIVTVDGYVDPSGGDRFCLGQLSNVHRTEAIERARLHIGKGVQLECKGEGDVWVRCLSDHAVFVQSYYLDREAGRAPGDAVHKIYPSAYIKVFDLRQCHRQMQQQAATAQAAAAAQAAAVAGNIPGPGSVGGIAPAISLSAAAGIGVDDLRRLCILRMSFVKGWGPDYPRQSIKETPCWIEIHLHRALQLLDEVLHTMPIADPQPLD
partner: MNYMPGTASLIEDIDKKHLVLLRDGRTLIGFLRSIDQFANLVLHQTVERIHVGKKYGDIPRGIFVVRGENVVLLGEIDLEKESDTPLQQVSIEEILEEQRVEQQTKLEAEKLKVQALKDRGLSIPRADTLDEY
B2: Mothers against decapentaplegic homolog 4 (Homo sapiens), Q13485 (parent)
chain: B1 chain
partner: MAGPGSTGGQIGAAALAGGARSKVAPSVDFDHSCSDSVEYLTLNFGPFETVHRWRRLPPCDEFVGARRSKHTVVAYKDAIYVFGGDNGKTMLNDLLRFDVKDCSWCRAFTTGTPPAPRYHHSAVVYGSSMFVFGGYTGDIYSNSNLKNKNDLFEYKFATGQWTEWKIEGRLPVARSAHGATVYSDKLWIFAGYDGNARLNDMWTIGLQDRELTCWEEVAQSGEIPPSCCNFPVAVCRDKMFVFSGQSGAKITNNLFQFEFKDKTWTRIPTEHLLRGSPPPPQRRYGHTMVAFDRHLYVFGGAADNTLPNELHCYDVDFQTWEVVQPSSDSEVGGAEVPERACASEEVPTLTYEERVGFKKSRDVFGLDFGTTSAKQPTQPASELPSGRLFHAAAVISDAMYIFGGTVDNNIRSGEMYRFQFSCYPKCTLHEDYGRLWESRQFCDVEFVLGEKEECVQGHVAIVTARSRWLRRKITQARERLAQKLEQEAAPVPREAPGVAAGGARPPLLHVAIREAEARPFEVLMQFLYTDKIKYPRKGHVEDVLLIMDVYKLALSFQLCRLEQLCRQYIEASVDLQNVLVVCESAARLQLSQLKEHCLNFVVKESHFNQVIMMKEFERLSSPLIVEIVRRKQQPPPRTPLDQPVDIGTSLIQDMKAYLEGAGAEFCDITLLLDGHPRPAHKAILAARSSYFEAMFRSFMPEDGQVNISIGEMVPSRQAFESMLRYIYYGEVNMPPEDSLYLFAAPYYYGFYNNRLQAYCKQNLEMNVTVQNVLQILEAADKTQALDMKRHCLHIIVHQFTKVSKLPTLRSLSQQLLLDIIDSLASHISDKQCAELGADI
B3: Mothers against decapentaplegic homolog 4 (Homo sapiens), Q13485 (parent)
chain: B1 chain
partner: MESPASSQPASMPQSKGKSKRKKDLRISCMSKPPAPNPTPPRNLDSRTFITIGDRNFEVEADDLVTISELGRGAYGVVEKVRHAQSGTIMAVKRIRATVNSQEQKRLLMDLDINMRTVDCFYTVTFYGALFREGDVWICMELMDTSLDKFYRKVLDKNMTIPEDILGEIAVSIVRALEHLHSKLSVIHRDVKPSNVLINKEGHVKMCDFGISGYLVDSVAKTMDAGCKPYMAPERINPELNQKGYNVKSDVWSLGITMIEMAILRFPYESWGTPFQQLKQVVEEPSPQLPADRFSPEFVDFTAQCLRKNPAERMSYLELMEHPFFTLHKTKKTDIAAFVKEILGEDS
B4: Mothers against decapentaplegic homolog 4 (Homo sapiens), Q13485 (parent)
chain: B1 chain
partner: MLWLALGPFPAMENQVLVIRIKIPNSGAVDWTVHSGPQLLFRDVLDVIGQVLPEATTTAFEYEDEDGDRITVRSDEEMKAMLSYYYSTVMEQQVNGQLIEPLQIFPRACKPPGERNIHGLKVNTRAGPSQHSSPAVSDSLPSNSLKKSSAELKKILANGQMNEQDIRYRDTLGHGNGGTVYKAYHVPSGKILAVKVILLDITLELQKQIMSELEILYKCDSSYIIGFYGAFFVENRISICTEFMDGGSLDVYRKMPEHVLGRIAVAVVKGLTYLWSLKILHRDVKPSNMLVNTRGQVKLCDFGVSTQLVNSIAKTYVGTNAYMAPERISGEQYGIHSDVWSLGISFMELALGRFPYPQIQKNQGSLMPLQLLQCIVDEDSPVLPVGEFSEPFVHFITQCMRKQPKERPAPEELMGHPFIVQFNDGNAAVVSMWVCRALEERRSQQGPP
B5: Mothers against decapentaplegic homolog 4 (Homo sapiens), Q13485 (parent)
chain: B1 chain
partner: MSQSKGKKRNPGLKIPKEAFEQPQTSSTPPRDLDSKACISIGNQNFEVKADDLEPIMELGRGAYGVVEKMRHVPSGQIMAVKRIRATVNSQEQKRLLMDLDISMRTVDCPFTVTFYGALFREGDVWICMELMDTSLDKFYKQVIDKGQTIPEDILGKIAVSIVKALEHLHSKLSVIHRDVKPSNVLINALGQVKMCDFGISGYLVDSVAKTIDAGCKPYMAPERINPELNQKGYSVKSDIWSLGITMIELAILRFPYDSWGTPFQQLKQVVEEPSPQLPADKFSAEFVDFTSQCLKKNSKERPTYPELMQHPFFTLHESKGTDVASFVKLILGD
B6: Mothers against decapentaplegic homolog 4 (Homo sapiens), Q13485 (parent)
chain: B1 chain
partner: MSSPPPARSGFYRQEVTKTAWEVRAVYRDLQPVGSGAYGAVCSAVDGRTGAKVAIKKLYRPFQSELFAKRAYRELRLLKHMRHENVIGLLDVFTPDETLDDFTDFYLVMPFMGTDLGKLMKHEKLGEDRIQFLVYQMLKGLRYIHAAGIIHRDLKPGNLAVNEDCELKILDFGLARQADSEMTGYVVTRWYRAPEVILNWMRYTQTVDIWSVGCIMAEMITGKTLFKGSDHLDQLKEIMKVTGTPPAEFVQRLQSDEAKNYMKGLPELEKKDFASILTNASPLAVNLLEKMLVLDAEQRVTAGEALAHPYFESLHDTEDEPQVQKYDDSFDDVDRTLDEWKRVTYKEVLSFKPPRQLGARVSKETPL

Variants of: B1
Conditions: with lsm1_human LSM1, O15116

| Variant | effect of a mutation on the interaction |
| --- | --- |
| G386D | with no effect |

Variants of: B1
Conditions: with lsm1_human LSM1, O15116
Remark: another data set of the same source

| Variant | effect of a mutation on the interaction |
| --- | --- |
| R361C | with no effect |

Variants of: B1
Conditions: with lsm1_human LSM1, O15116
Remark: another data set of the same source

| Variant | effect of a mutation on the interaction |
| --- | --- |
| R361H | with no effect |

Variants of: B2
Conditions: with lztr1_human LZTR1, Q8N653

| Variant | effect of a mutation on the interaction |
| --- | --- |
| D351H | with no effect |

Variants of: B2
Conditions: with lztr1_human LZTR1, Q8N653
Remark: another data set of the same source

| Variant | effect of a mutation on the interaction |
| --- | --- |
| G386D | with no effect |

Variants of: B2
Conditions: with lztr1_human LZTR1, Q8N653
Remark: another data set of the same source

| Variant | effect of a mutation on the interaction |
| --- | --- |
| R361C | with no effect |

Variants of: B2
Conditions: with lztr1_human LZTR1, Q8N653
Remark: another data set of the same source

| Variant | effect of a mutation on the interaction |
| --- | --- |
| R361C | decreasing interaction strength |
| R361H | decreasing interaction strength |

Variants of: B2
Conditions: with lztr1_human LZTR1, Q8N653
Remark: another data set of the same source

| Variant | effect of a mutation on the interaction |
| --- | --- |
| R361H | with no effect |

Variants of: B3
Conditions: with mp2k3_human MAP2K3, P46734

| Variant | effect of a mutation on the interaction |
| --- | --- |
| D351H | with no effect |

Variants of: B3
Conditions: with mp2k3_human MAP2K3, P46734
Remark: another data set of the same source

| Variant | effect of a mutation on the interaction |
| --- | --- |
| G386D | with no effect |

Variants of: B3
Conditions: with mp2k3_human MAP2K3, P46734
Remark: another data set of the same source

| Variant | effect of a mutation on the interaction |
| --- | --- |
| R361C | with no effect |

Variants of: B3
Conditions: with mp2k3_human MAP2K3, P46734
Remark: another data set of the same source

| Variant | effect of a mutation on the interaction |
| --- | --- |
| R361H | with no effect |

Variants of: B4
Conditions: with mp2k5_human MAP2K5, Q13163

| Variant | effect of a mutation on the interaction |
| --- | --- |
| D351H | with no effect |

Variants of: B4
Conditions: with mp2k5_human MAP2K5, Q13163
Remark: another data set of the same source

| Variant | effect of a mutation on the interaction |
| --- | --- |
| G386D | with no effect |

Variants of: B4
Conditions: with mp2k5_human MAP2K5, Q13163
Remark: another data set of the same source

| Variant | effect of a mutation on the interaction |
| --- | --- |
| R361C | with no effect |

Variants of: B4
Conditions: with mp2k5_human MAP2K5, Q13163
Remark: another data set of the same source

| Variant | effect of a mutation on the interaction |
| --- | --- |
| R361H | with no effect |

Variants of: B5
Conditions: with mp2k6_human MAP2K6, P52564

| Variant | effect of a mutation on the interaction |
| --- | --- |
| D351H | with no effect |

Variants of: B5
Conditions: with mp2k6_human MAP2K6, P52564
Remark: another data set of the same source

| Variant | effect of a mutation on the interaction |
| --- | --- |
| G386D | with no effect |

Variants of: B5
Conditions: with mp2k6_human MAP2K6, P52564
Remark: another data set of the same source

| Variant | effect of a mutation on the interaction |
| --- | --- |
| R361C | with no effect |

Variants of: B5
Conditions: with mp2k6_human MAP2K6, P52564
Remark: another data set of the same source

| Variant | effect of a mutation on the interaction |
| --- | --- |
| R361H | with no effect |

Variants of: B6
Conditions: with mk12_human MAPK12, P53778

| Variant | effect of a mutation on the interaction |
| --- | --- |
| D351H | with no effect |

Variants of: B6
Conditions: with mk12_human MAPK12, P53778
Remark: another data set of the same source

| Variant | effect of a mutation on the interaction |
| --- | --- |
| G386D | with no effect |
